Experimental data published in patent US20240262922A1 (Merck KGaA, published 2024).
Changes are numbered by the printed parent chain.

T1: recombinant human OX40L protein (R&D Systems, cat. #1054-OX) (human, UniProt P23510 51-183)
T1 sequence: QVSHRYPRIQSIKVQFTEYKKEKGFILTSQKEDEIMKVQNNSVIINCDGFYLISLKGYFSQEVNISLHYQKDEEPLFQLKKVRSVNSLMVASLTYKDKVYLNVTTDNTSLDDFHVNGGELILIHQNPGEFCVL

T2: AVI-GST-His6-hOX40L (human, UniProt P23510 51-183)
T2 sequence: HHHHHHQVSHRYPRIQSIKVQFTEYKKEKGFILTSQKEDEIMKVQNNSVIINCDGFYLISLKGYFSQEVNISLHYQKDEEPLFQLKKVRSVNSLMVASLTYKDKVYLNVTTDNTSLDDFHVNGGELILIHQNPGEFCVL

T3: mouse OX40L (mouse, UniProt P43488 51-198, limits assumed)
T3 sequence: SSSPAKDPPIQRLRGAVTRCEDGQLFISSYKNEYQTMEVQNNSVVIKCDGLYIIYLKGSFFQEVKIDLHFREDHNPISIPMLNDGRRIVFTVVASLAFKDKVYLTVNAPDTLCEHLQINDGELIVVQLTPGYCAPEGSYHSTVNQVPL

T4: recombinant cynomolgus monkey OX40L (Novoprotein cat. #CP72) (cynomolgus monkey, UniProt P23510 51-183 (human entry), limits assumed)
T4 construct: Bought protein; also called cynomolgus OX40L
T4 chain: T1 sequence with R5Q, K23E

B1: 98C01 (IgG) (antibody)
heavy: not shown
light: SYELTQPPSVSVALGQTARITCGGNNIENKNVHWYQQKPGQAPVLVIYRDSNRPSGIPERFSGSNSGNTATLSINRAQAGDEADYYCQVWDSNTVVFGGGTKLTVLGQPKAAPSVTLFPPSSEELQANKATLVCLISDFYPGAVTVAWKADSSPVKAGVETTTPSKQSNNKYAASSYLSLTPEQWKSHKSYSCQVTHEGSTVEKTVAPTECS
B2: 68F03 (IgG) (antibody)
heavy: not shown
light: B1 light with Y2F, P8L, N25I, W34Y, S51T, S73T, N75S, V96I, L103V
B3: 30F02 (IgG) (antibody)
heavy: not shown
light: B1 light with E3V, P8L, E28G, N29D, Y48S, S73T, N75S, A83S, N93S, L103V
B4: 98E10 (IgG) (antibody)
heavy: not shown
light: B1 light with P8L, K38M, S73T, L103V
B5: 84E11 (IgG) (antibody)
heavy: not shown
light: SSELTQDPAVSVALGQTVRITCQGDSLRNYFANWYQQKPGQAPVLVIYGKNNRPSGIPDRFSGSSSGNTASLTITGAQAEDEADYYCNSRDSSGYHVVFGGGTKLTVLGQPKAAPSVTLFPPSSEELQANKATLVCLISDFYPGAVTVAWKADSSPVKAGVETTTPSKQSNNKYAASSYLSLTPEQWKSHKSYSCQVTHEGSTVEKTVAPTECS
B6: 89B09 (IgG) (antibody)
heavy: not shown
light: SSELTQDPAVSVALGQTVRITCQGDSVRRFFAHWYQQKPGQAPILVISGKDTRPSGIPDRFSGSISGNTASLTITGAQAEDEADYYCNSRDSSGYLVLFGGGTKLTVLGQPKAAPSVTLFPPSSEELQANKATLVCLISDFYPGAVTVAWKADSSPVKAGVETTTPSKQSNNKYAASSYLSLTPEQWKSHKSYSCQVTHEGSTVEKTVAPTECS
B7: 85F10 (IgG) (antibody)
heavy: not shown
light: B1 light with P8L, Y48K, F61L, S73T, N75S, N93S
B8: 85F10 (FcFab) (antibody)
chain 1: EPKSSDKTHTCPPCPAPPVAGPSVFLFPPKPKDTLMISRTPEVTCVVVDVSHEDPEVKFNWYVDGVEVHNAKTKPREEQYNSTYRVVSVLTVLHQDWLNGKEYKCAVSNKALPSSIEKTISKAKGQPREPQVYTLPPSREEMTKNQVSLTCLVKGFYPSDIAVEWESNGQPENNYKTTPPVLDSDGSFFLYSKLTVDKSRWQQGNVFSCSVMHEALHNHYTQKSLSLSPGAGGGGSGGGGSGGGGSEVQLLESGAGLLKPSETLSLTCAVYGGSFSDYYWSWIRQPPGKGLEWIGEINHSGSTNYNPSLKSRVTISVDTSKNQFSLKLSSVTAADTAVYYCARKRGANFFDDWGQGTLVTVSSASTKGPSVFPLAPSSKSTSGGTAALGCLVKDYFPEPVTVSWNSGALTSGVHTFPAVLQSSGLYSLSSVVTVPSSSLGTQTYICNVNHKPSNTKVDKRVEPKSC
chain 2: B1 light with P8L, Y48K, F61L, S73T, N75S, N93S
B9: 30F02 (FcFab) (antibody)
chain 1: EPKSSDKTHTCPPCPAPPVAGPSVFLFPPKPKDTLMISRTPEVTCVVVDVSHEDPEVKFNWYVDGVEVHNAKTKPREEQYNSTYRVVSVLTVLHQDWLNGKEYKCAVSNKALPSSIEKTISKAKGQPREPQVYTLPPSREEMTKNQVSLTCLVKGFYPSDIAVEWESNGQPENNYKTTPPVLDSDGSFFLYSKLTVDKSRWQQGNVFSCSVMHEALHNHYTQKSLSLSPGAGGGGSGGGGSGGGGSQLQLQESGPGLVKPSETLSLTCTVSGASISSSNHYWGWGWIRQPPGKGLEWIGSIYYSGNTYYNPSLKSRVTISVDTSKNQFSLKLSSVTAADTAVYYCARHRGSYFFDHWGQGTLVTVSSASTKGPSVFPLAPSSKSTSGGTAALGCLVKDYFPEPVTVSWNSGALTSGVHTFPAVLQSSGLYSLSSVVTVPSSSLGTQTYICNVNHKPSNTKVDKRVEPKSC
chain 2: B1 light with E3V, P8L, E28G, N29D, Y48S, S73T, N75S, A83S, N93S, L103V
B10: 85F12 (FcFab) (antibody)
chain 1: EPKSSDKTHTCPPCPAPPVAGPSVFLFPPKPKDTLMISRTPEVTCVVVDVSHEDPEVKFNWYVDGVEVHNAKTKPREEQYNSTYRVVSVLTVLHQDWLNGKEYKCAVSNKALPSSIEKTISKAKGQPREPQVYTLPPSREEMTKNQVSLTCLVKGFYPSDIAVEWESNGQPENNYKTTPPVLDSDGSFFLYSKLTVDKSRWQQGNVFSCSVMHEALHNHYTQKSLSLSPGAGGGGSGGGGSGGGGSQVQLQQSGPGLVKPSQTLSLTCAISGDSVSSNSAVWNWIRQSPSRGLEWLGRTDYRSKWNNDYAVSVKSRITINPDTSKNQFSLQLNSVTPEDTAVYYCARGDAGMASFDYWGQGTLVTVSSASTKGPSVFPLAPSSKSTSGGTAALGCLVKDYFPEPVTVSWNSGALTSGVHTFPAVLQSSGLYSLSSVVTVPSSSLGTQTYICNVNHKPSNTKVDKRVEPKSC
chain 2: SSELTQPPSVSVSPGQTASITCSGDKLGDKYACWYQQKAGQSPVVVIYQDRKRPSGIPERFSGSNSGNTATLTISGTQAMDEADYYCQTWDRRTAVFGGGTKLTVLGQPKAAPSVTLFPPSSEELQANKATLVCLISDFYPGAVTVAWKADSSPVKAGVETTTPSKQSNNKYAASSYLSLTPEQWKSHKSYSCQVTHEGSTVEKTVAPTECS
B11: 85F12 (IgG) (antibody)
heavy: not shown
light: B10 chain 2

biological target: T1, recombinant human OX40L protein (R&D …); experiment: cell-based or functional assay

Binder	Primary T cell activation assay IC50 [nM]
B1	12.9
B2	18.8
B3	12.4
B4	8.8
B5	8.8
B6	10.7

biological target: T2, AVI-GST-His6-hOX40L; experiment: cell-based or functional assay

Binder	OX40L neutralization/OX40-HEK Reporter IC50 [nM]
B1	3.6
B7	54.6
B2	5.7
B3	72.7
B4	5.4
B5	17.7
B6	4.4

biological target: T1, recombinant human OX40L protein (R&D …); experiment: cell-based or functional assay; remark: another data set of the same source

Binder	Primary T cell activation assay IC50 [nM]
B8	6.3
B9	2.9
B10	> 161

biological target: T2, AVI-GST-His6-hOX40L; experiment: cell-based or functional assay; remark: another data set of the same source

Binder	OX40L neutralization/OX40-HEK Reporter IC50 [nM]
B8	> 161
B9	52.8
B10	> 161

biological target: T1, recombinant human OX40L protein (R&D …); experiment: SPR steady state, Biacore T200; OX40L immobilised on CM5, FcFab in solution
Experimental: (§1) Recombinant OX40L proteins (human OX40L protein, R&D systems, cat. #1054-OX; cynomolgus monkey OX40L, Novoprotein cat. #CP72) were immobilized onto Biacore CM5 sensor chips and anti-OX40L antibodies were bound to this surface at a range of concentrations. The response at steady state was measured with a Biacore T200 instrument (GE Healthcare) and plotted against the concentration of antibody and fit to a 1:1 binding model. The steady state KD was determined as the antibody concentration at a response equal to half the maximal response (Rₘₐₓ).
As with the IgG clones, binding affinity to human OX40L was determined for all twelve FcFabs using steady state affinity assay as described in section 1.1.7 of Example 1. […]

Binder	Kd [nM]
B8	50.1
B9	56
B10	34.1

biological target: T1, recombinant human OX40L protein (R&D …); experiment: SPR steady state, Biacore T200; OX40L immobilised on CM5, antibody in solution
Experimental: as §1
Steady state affinity assay was performed as described in section 1.1.7 of Example 1.

Binder	Kd [nM]
B1	17.7
B7	28.2
B2	25.8
B3	53.9
B4	32.8
B5	39.5
B6	31.6
B11	75.6

biological target: T3, mouse OX40L; experiment: flow cytometry on CHO-S cells / ELISA on recombinant protein (sentence does not say which)

Binder	binding result
B1	no binding
B7	no binding
B3	no binding
B4	no binding
B5	no binding
B6	no binding
B11	no binding

Biological target: T4, recombinant cynomolgus monkey OX40L …
Experiment: flow cytometry on CHO-S-OX40L cells / ELISA on recombinant OX40L (sentence does not say which)

Binder	binding result
B1	binds
B7	binds
B3	binds
B4	binds
B5	binds
B6	binds
B11	binds
